The supplement of paper PMC6757056
± gives the standard deviation of the averaged measurements.

B1: library; a variant is named by its letters at N, in order (parent)
chain: GCUGUCACCGGUGCUUGGUACGUUAUAUUCAGCCGGUCUGAUGAGUCUNNNNNNAGACGAAACAGC

Assays:
[1] = variants of: B1; test: normalized RNA/DNA level without ligand (relative to sTRSVctl = 100) (log10 (% of sTRSVctl)); HEK293T overexpressing SLC46A1; higher = less ribozyme self-cleavage, higher mRNA level; settings: without (6R,S)-folinic acid; ligand present: no
In short: (§1)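 Ribozyme switch library plasmids with mCherry reporters (eGFP in certain ligand experiments) went into HEK293T cells at 4 µg per 6-well well. Where ligand was used, it was applied 1 h before transfection, and total RNA was extracted with EDTA 72 h later for reverse transcription, amplification, barcoding and sequencing. RNA level is the RNA-to-DNA read ratio normalized to a spiked-in non-cleaving sequence or to the leading sequences, then scaled and log-transformed. Scaling was ×100 with log10, the leading set comprised 25 sequences, and the cutoff was ≥100 DNA reads.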

[2] = variants of: B1; test: normalized RNA/DNA level with ligand (relative to sTRSVctl = 100) (log10 (% of sTRSVctl)); HEK293T overexpressing SLC46A1; ligand concentration (+) RNA-Seq: 6 mM; higher = less ribozyme self-cleavage, higher mRNA level; settings: with (6R,S)-folinic acid; ligand present: yes
In short: as §1

Row | Variant | normalized RNA/DNA level without ligand (log10) [1] | normalized RNA/DNA level with ligand (log10) [2]
1 | GUCGAG | 1.947 ± 0.0022 | 2 ± 0.036
2 | GUCGAA | 1.9847 ± 0.0012 | 2.02 ± 0.026
3 | GUAUUC | 2.03 ± 0.025 | 2.021 ± 0.019
4 | GUAUUG | 1.9409 ± 0.00012 | 2.003 ± 0.0063
5 | GUAUUA | 2.005 ± 0.01 | 2 ± 0.072
6 | AUCAAC | 2.0326 ± 0.00048 | 2.01 ± 0.033
7 | AUCAAA | 2.002 ± 0.0041 | 2 ± 0.04
8 | AUCAAG | 1.93 ± 0.021 | 2 ± 0.026
9 | AUCAAU | 1.989 ± 0.0025 | 2 ± 0.053
10 | CUCCCG | 2.067 ± 0.0068 | 2.0818 ± 0.00082
11 | CUCCCA | 2.064 ± 0.0049 | 2.01 ± 0.061
12 | CUCCCC | 2.02 ± 0.033 | 2 ± 0.058
13 | CUCCCU | 2.04 ± 0.044 | 2.05 ± 0.062
14 | GUCCAU | 1.9991 ± 3.5e-06 | 2.008 ± 0.016
15 | GUCCAA | 1.992 ± 0.011 | 2.01 ± 0.035
16 | GUCCAC | 2.006 ± 0.011 | 2.011 ± 0.017
17 | CUCUCG | 2.05 ± 0.014 | 2.014 ± 0.0035
18 | CUCUCC | 2.1 ± 0.025 | 2.07 ± 0.022
19 | CUCUCA | 2.05 ± 0.015 | 2.02 ± 0.057
20 | CUCUCU | 2.025 ± 0.017 | 2.019 ± 0.0069
21 | CUCUGU | 2.0266 ± 0.0016 | 2.037 ± 0.0081
22 | CUCUGG | 2.04 ± 0.021 | 2.04 ± 0.028
23 | CUCUGA | 2.067 ± 0.012 | 2.046 ± 0.0084

Row | Variant | normalized RNA/DNA level without ligand (log10) [1] | normalized RNA/DNA level with ligand (log10) [2]
24 | CUCUGC | 2.02 ± 0.025 | 2.03 ± 0.027
25 | CUAUCU | 2.042 ± 0.0051 | 2.06 ± 0.022
26 | CUAUCG | 2.037 ± 0.015 | 2.02 ± 0.043
27 | CUAUCA | 2.03 ± 0.035 | 2.0307 ± 0.00092
28 | CUAUCC | 2.07 ± 0.03 | 2.04 ± 0.037
29 | GUAUAC | 1.9802 ± 0.0015 | 2.02 ± 0.026
30 | GUAUAU | 1.944 ± 0.018 | 1.97 ± 0.043
31 | UUCUGU | 2.03 ± 0.023 | 2.047 ± 0.0083
32 | UUCUGA | 2.016 ± 0.012 | 2.032 ± 0.0073
33 | AUCGUA | 1.982 ± 0.008 | 1.993 ± 0.013
34 | AUCGUU | 2.043 ± 0.0096 | 2.01 ± 0.036
35 | AUCGUG | 1.906 ± 0.0026 | 2.01 ± 0.026
36 | AUCGUC | 2.106 ± 0.011 | 2.06 ± 0.027
37 | CUCAGA | 2.048 ± 0.019 | 2.03 ± 0.07
38 | CUCAGG | 1.99 ± 0.021 | 2.03 ± 0.03
39 | CUCAGU | 2.024 ± 0.015 | 2.017 ± 0.015
40 | CUCAGC | 2.06 ± 0.0071 | 2.032 ± 0.0023
41 | UUCGGU | 1.962 ± 0.013 | 2 ± 0.021
42 | UUCGGA | 1.961 ± 0.0071 | 2.024 ± 0.0051
43 | UUCGGG | 1.86 ± 0.024 | 2.01 ± 0.052
44 | UUCAUA | 1.993 ± 0.0029 | 1.994 ± 0.002
45 | UUCAUU | 2.025 ± 0.0078 | 2.01 ± 0.053
46 | UUCAUC | 2.01 ± 0.036 | 1.93 ± 0.043

Row | Variant | normalized RNA/DNA level without ligand (log10) [1] | normalized RNA/DNA level with ligand (log10) [2]
47 | AUCCCU | 2.039 ± 0.0098 | 2.027 ± 0.012
48 | AUCCCA | 2.022 ± 0.0087 | 2.03 ± 0.036
49 | AUCCCC | 2.047 ± 0.013 | 2.01 ± 0.05
50 | AUCCCG | 2.01 ± 0.0024 | 2.01 ± 0.029
51 | UUCCCC | 2.058 ± 0.019 | 1.99 ± 0.022
52 | UUCCCA | 2.034 ± 0.0022 | 2.03 ± 0.04
53 | UUCCCG | 1.972 ± 0.0089 | 2 ± 0.038
54 | UUCCCU | 2.058 ± 0.011 | 2.06 ± 0.048
55 | CUCAUG | 2.003 ± 0.019 | 1.98 ± 0.023
56 | CUCAUU | 2.08 ± 0.03 | 2.05 ± 0.026
57 | CUCAUA | 1.99 ± 0.021 | 1.96 ± 0.055
58 | UUAUCA | 1.999 ± 0.019 | 2.01 ± 0.021
59 | UUAUCG | 1.885 ± 0.0047 | 1.97 ± 0.041
60 | UUAUCC | 2.04 ± 0.016 | 2.01 ± 0.032
61 | AUCUAC | 2.013 ± 0.0088 | 2.03 ± 0.039
62 | AUCUAG | 1.974 ± 0.013 | 2.021 ± 0.0074
63 | AUCUAA | 2.0002 ± 0.0016 | 2.01 ± 0.042
64 | AUCUAU | 2.0163 ± 0.0016 | 2.03 ± 0.041
65 | GUCCGC | 2.07 ± 0.011 | 2.045 ± 0.0035
66 | GUCCGU | 2.02 ± 0.021 | 2.022 ± 0.012
67 | CUCCUG | 2.07 ± 0.016 | 2.064 ± 0.014
68 | CUCCUC | 2.06 ± 0.057 | 1.99 ± 0.053
69 | CUCCUA | 2.02 ± 0.023 | 2.01 ± 0.033

Row | Variant | normalized RNA/DNA level without ligand (log10) [1] | normalized RNA/DNA level with ligand (log10) [2]
70 | CUCCUU | 2.014 ± 0.016 | 2 ± 0.027
71 | AUCACG | 1.969 ± 0.014 | 2.01 ± 0.043
72 | AUCACU | 2.029 ± 0.008 | 2.01 ± 0.03
73 | AUCACC | 2.057 ± 0.0026 | 2.04 ± 0.053
74 | UUCAGC | 2.063 ± 0.016 | 2.048 ± 0.014
75 | UUCAGA | 1.975 ± 0.011 | 2 ± 0.021
76 | UUCAGU | 1.9849 ± 0.0019 | 2.01 ± 0.043
77 | CUAUAU | 2 ± 0.033 | 2.03 ± 0.063
78 | CUAUAC | 2.001 ± 0.0069 | 2.01 ± 0.014
79 | GUCAGA | 2.0258 ± 0.00039 | 2.027 ± 0.01
80 | GUCAGU | 2.03 ± 0.026 | 2.04 ± 0.038
81 | GUCAGC | 1.979 ± 0.018 | 2.02 ± 0.033
82 | CUCGGU | 2.03 ± 0.034 | 2.02 ± 0.028
83 | CUCGGA | 2.044 ± 0.0022 | 2.0131 ± 0.00036
84 | CUCGGC | 2.05 ± 0.027 | 2.04 ± 0.034
85 | CUCGGG | 2.0341 ± 0.00097 | 2.07 ± 0.046
86 | GUCGGU | 2.018 ± 0.0045 | 2.06 ± 0.027
87 | GUCGGG | 1.998 ± 0.011 | 2.05 ± 0.051
88 | GUCGGC | 2.004 ± 0.0028 | 2.03 ± 0.025
89 | GUCGGA | 1.997 ± 0.0032 | 2.02 ± 0.045
90 | UUCGUG | 1.81 ± 0.027 | 1.99 ± 0.067
91 | UUCGUA | 1.96 ± 0.025 | 1.97 ± 0.02
92 | UUCGUU | 2.009 ± 0.013 | 1.98 ± 0.042

Row | Variant | normalized RNA/DNA level without ligand (log10) [1] | normalized RNA/DNA level with ligand (log10) [2]
93 | UUCGUC | 2.1 ± 0.024 | 2.06 ± 0.068
94 | UUCCAC | 2.01 ± 0.016 | 1.99 ± 0.033
95 | UUCCAU | 1.99 ± 0.023 | 1.99 ± 0.049
96 | UUCCAG | 1.91 ± 0.021 | 1.99 ± 0.034
97 | AUCAGA | 2.047 ± 0.0058 | 2.04 ± 0.031
98 | AUCAGG | 1.96 ± 0.023 | 2.04 ± 0.041
99 | AUCAGC | 2.065 ± 0.016 | 2.02 ± 0.031
100 | CUAUUA | 2.017 ± 0.013 | 2.009 ± 0.0054
101 | CUAUUC | 2.06 ± 0.024 | 2.008 ± 0.0052
102 | AUAUGC | 1.9727 ± 0.0008 | 1.99 ± 0.046
103 | UUCGAU | 1.954 ± 0.0023 | 2.02 ± 0.033
104 | UUCGAA | 1.947 ± 0.018 | 2 ± 0.027
105 | UUCGAC | 1.994 ± 0.0022 | 2.02 ± 0.037
106 | CUAUGG | 1.97 ± 0.03 | 2.039 ± 0.014
107 | CUAUGA | 2.02 ± 0.013 | 2.02 ± 0.027
108 | CUAUGC | 2.036 ± 0.0043 | 2.036 ± 0.0099
109 | UUCACA | 1.966 ± 0.017 | 1.971 ± 0.015
110 | UUCACG | 1.954 ± 0.013 | 2.01 ± 0.028
111 | UUCACC | 2.06 ± 0.036 | 2.02 ± 0.068
112 | CUCACC | 2.06 ± 0.029 | 1.96 ± 0.048
113 | CUCACG | 2.04 ± 0.027 | 2.028 ± 0.02
114 | CUCACU | 2.041 ± 0.0055 | 1.99 ± 0.021
115 | CUCACA | 2.036 ± 0.0022 | 2 ± 0.049
